Tested on: N[C@@H](Cc1ccc(O)cc1)C(=O)O
Assay: ATP:PPi exchange reaction
Assay type: biochemical, Pseudomonas aeruginosa
Details: other: other substrate (Tyr or ATP) held at 2 mM; enzyme 0.4 μM; pH 7.5; 37.0 °C

Substance | Km | kcat
P. aeruginosa TyrRS-S (Pseudomonas aeruginosa PAO1) | 172 µM | 3.8 s⁻¹
P. aeruginosa TyrRS-Z (Pseudomonas aeruginosa PAO1) | 29 µM | 3.1 s⁻¹

Source: paper PMC7508885
